B1: PfRH5 (natural protein)
chain: ENAIKKTKNQENNLTLLPIKSTEEEKDDIKNGKDIKKEIDNDKENIKTNNAKDHSTYIKSYLNTNVNDGLKYLFIPSHNSFIKKYSVFNQINDGMLLNEKNDVKNNEDYKNVDYKNVNFLQYHFKELSNYNIANSIDILQEKEGHLDFVIIPHYTFLDYYKHLSYNSIYHKSSTYGKYIAVDAFIKKINEAYDKVKSKCNDIKNDLIATIKKLEHPYDINNKNDDSYRYDISEEIDDKSEETDDETEEVEDSIQDTDSNHTPSNKKKNDLMNRAFKKMMDEYNTKKKKLIKCIKNHENDFNKICMDMKNYGTNLFEQLSCYNNNFCNTNGIRYHYDEYIHKLILSVKSKNLNKDLSDMTNILQQSELLLTNLNKKMGSYIYIDTIKFIHKEMKHIFNRIEYHTKIINDKTKIIQDKIKLNIWRTFQKDELLKRILDMSNEYSLFITSDHLRQMLYNTFYSKEKHLNNIFHHLIYVLQMKFNDVPIKMEYFQTYKKNKPLTQ
B2: full-length human basigin (receptor)
chain: AAGTVFTTVEDLGSKILLTCSLNDSATEVTGHRWLKGGVVLKEDALPGQKTEFKVDSDDQWGEYSCVFLPEPMGTANIQLHGPPRVKAVKSSEHINEGETAMLVCKSESVPPVTDWAWYKITDSEDKALMNGSESRFFVSSSQGRSELHIENLNMEADPGQYRCNGTSSKGSDQAIITLRVRSHLAALWPFLGIVAEVLVLVTIIFIYEKRRKPEDVLDDDDAGSAPLKSSGQHQNDKGKNVRQRNSS
modifications: labelled with Alexa Fluor 488 (protein-labelling kit)
B3: PfCSS–PfPTRAMP heterodimer (complex)
chain 1: QDEKSVKNICVCDFTDKLNFLPLEKTKILCELKPQYGEDIKIIANKEYEINCMNNSKVFCPLKDTFINNTNIKLYSPKLHFEIKDITHKGKNAALYYLKIDEEASDIFFSCSIKPKQVSGLLEGEVRVNLKKHINEEYSIFNEEEDVHVCDFSKGNLDITPSAGFYLKNSRNVSCIYRVIPNKLFLIKLPKLDIVTEKLLPSIVNCLSEFSFINFTLKHVQEGDNYISFNVIFGEFKKHFNLTCSLDLSDFQQEPCNLGKTANITFIFSK
chain 2: CNLKVRNNWEHFLQVYQNNGNFKMEILEPECTIQKNLPSEEEKEEFIDFDRKELLLHDFVVIKNSQFTDEKTLELYLSKEENNKSYLMLTFYLGDLKLMIGHNSPYEISLILNVATVNKNMSNCKNNSYNIVLLKTTDVFNTSDLEILEGPIQFSLGKSSGAFRINVTNFFLNNTWKAFTKDKISFLIKPEENCYTILENKINKPQLLIEKKTTFYSEWGEWSNCSMDCDHPDNVQIRERECIHPSGDCFKGDLKESRPCIIPLPPCNELFSHKDNST
B4: basigin ectodomain (domain or fragment)
chain: AAGTVFTTVEDLGSKILLTCSLNDSATEVTGHRWLKGGVVLKEDALPGQKTEFKVDSDDQWGEYSCVFLPEPMGTANIQLHGPPRVKAVKSSEHINEGETAMLVCKSESVPPVTDWAWYKITDSEDKALMNGSESRFFVSSSQGRSELHIENLNMEADPGQYRCNGTSSKGSDQAIITLRVRSHLAAL
modifications: labelled with Alexa Fluor 488 (protein-labelling kit)

How the values were obtained:
[1] = target: B2; assay: MST; replicate 2
basigin ectodomain = target: B4; assay: MST; replicate 2
PfRCR complex [2] = target: T1, PfRCR complex (P. falciparum, UniProt Q8IFM8;O97302); assay: MST; replicate 1
PfRCR complex [3] = target: T1, PfRCR complex; assay: MST; replicate 2
PfRIPR tail [4] = target: T2, PfRIPR tail (P. falciparum, UniProt O97302 717-1086, N964Q | N1021Q); assay: SPR; replicate 1
PfRIPR [5] = target: T3, PfRIPR (P. falciparum, UniProt O97302 21-1086); assay: SPR; replicate 1
PfRIPR tail [6] = target: T2, PfRIPR tail; assay: SPR; replicate 2
PfRIPR tail [7] = target: T2, PfRIPR tail; assay: SPR; replicate 4
PfRIPR [8] = target: T3, PfRIPR; assay: SPR; replicate 4

## B1
[1]
  Kd: 171 nM
Basigin ectodomain
  Kd: 151 nM

## B2
PfRCR complex [2]
  Kd: 149 nM
PfRCR complex [3]
  Kd: 181 nM

## B3
PfRIPR tail [4]
  Kd: 2790 nM
PfRIPR [5]
  Kd: 2970 nM
PfRIPR tail [6]
  Kd: 5370 nM
PfRIPR tail [7]
  Kd: 4900 nM
PfRIPR [8]
  Kd: 4320 nM

## B4
PfRCR complex [2]
  Kd: 125 nM
PfRCR complex [3]
  Kd: 184 nM
